This note sets out measurements from article PMC9822835 (Computational and Structural Biotechnology Journal, 2022).

This assay addresses Tumor necrosis factor alpha (TNF-α) (Homo sapiens, UniProt P01375). Briefly: SPR. On the technique in general: SPR reads the build-up and loss of mass on a sensor chip optically.

The Kd is the concentration at which binding is half-saturated. Lower therefore signals higher affinity.

Tumor necrosis factor alpha (TNF-α), sequence (P01375 whole entry): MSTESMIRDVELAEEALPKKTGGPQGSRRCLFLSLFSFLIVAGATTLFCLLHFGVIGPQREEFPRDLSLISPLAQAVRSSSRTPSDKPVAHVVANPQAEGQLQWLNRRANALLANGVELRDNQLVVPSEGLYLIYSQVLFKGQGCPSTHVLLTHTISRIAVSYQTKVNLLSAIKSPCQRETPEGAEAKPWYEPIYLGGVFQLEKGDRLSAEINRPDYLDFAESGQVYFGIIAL

B1: VHH2^E50V&T53W (VHH)
VHH: QVQLVESGGGLVQPGGSLRLSCAASGFTFSNYWMYWVRQAPGKGLEWVSVINWNGLITKYPDSVKGRFTISRDNAKNTLYLQMNSLKPEDTALYYCARSPSGFNRGQGTQVTVSS
On to B1, for which binding was put at a Kd of 4.6 nM.
